Data on 4 substances can be found in publication PMC6798810.

Assay in all cases: EMSA
Common to all, as to details: EMSA: 15 ng/uL PCR product, 0.01-0.6 uM His-tagged protein, 45 min; MHQ 30 min, then DTT 30 min; buffer, pH and temperature not given (cited to ref. 44)
In general terms: A gel shift assay detects complexes by their altered migration in electrophoresis.

Data set [1] concerns T1, MhqR (Staphylococcus aureus COL), ORF:0a4449b0.
T1 sequence: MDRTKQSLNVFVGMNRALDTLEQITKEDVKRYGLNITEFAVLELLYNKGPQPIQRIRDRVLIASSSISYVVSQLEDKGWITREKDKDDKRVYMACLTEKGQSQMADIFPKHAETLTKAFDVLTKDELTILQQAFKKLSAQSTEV

Data set [2] relates to T2, MhqR C95A C95A (Staphylococcus aureus COL), ORF:0a4449b0.
T2 sequence: T1 sequence with C95A

Data set [3] deals with MhqR (Staphylococcus aureus COL).
Data set [4] relates to MhqR C95A (Staphylococcus aureus COL).

Substitutions are numbered along the chain they refer to.

For the substance “ACATATCAACTCCTATCATGATTGATTATAGTATTTCCCTATTCTATTTTAACTTAAACGAAGTCAAAGGTGCATGACAGTCATGTGACGACATTGCCACATCTATGTAGTCGTTTTTATTAAGCACAGTTTGAAATGAAGATGAAAACACGTATCTTGACATTAAATCTATTCAGTTATATAATTTATCCCTAAATCGAAATAAAATAAAAAAGTTGGTGATCATATGGATCGAACG (double strand) [PmhqRED m1]”, in data set [1], the binding result is reported as “no binding”. With “ACATATCAACTCCTATCATGATTGATTATAGTATTTCCCTATTCTATTTTAACTTAAACGAAGTCAAAGGTGCATGACAGTCATGTGACGACATTGCCACATCTATGTAGTCGTTTTTATTAAGCACAGTTTGAAATGAAGATGAAAACACGTATCTTGACATTAAATCTATTCAGTTATATAATTTATCTCGAAATAGGAATAAAATAAAAAAGTTGGTGATCATATGGATCGAACG (double strand) [PmhqRED m2]”, the binding entry in data set [1] is reported as “no binding”.

With “ACATATCAACTCCTATCATGATTGATTATAGTATTTCCCTATTCTATTTTAACTTAAACGAAGTCAAAGGTGCATGACAGTCATGTGACGACATTGCCACATCTATGTAGTCGTTTTTATTAAGCACAGTTTGAAATGAAGATGAAAACACGTATCTTGACATTAAATCTATTCAGTTATATAATTTATCTCGAAATCGAAATAAAATAAAAAAGTTGGTGATCATATGGATCGAACG (double strand) [PmhqRED promoter probe]”, the Kd in data set [2] was found to be 0.0143 µM; in data set [1] it was 0.00738 µM. In the case of PmhqRED promoter probe, the Kd in data set [3] turned out to be 0.00738 µM; in data set [4], 0.0143 µM.

Usually Kd stands for the concentration at which binding is half-saturated. A low value points to a tighter complex.
